Assay: soluble on expression in E. coli; label from the status in PepcDB or PDB records

Soluble on expression in E. coli, not soluble:
MGSDKIHHHHHHMATELPSLKGLQAFEAAARYRSVTLASNELNVTPGAVSLQIRELEARLGVQLFFRKPRSIQLTREGERYYGALRTAFRMMREATAELTARSEITVLTLSCTPTFAVQWLMPRLPSFQQQHPHVDVRISVTNRLVDFSRDDVDLAVRHGFGRYEGLESIRFIDDSTLPVCAPQLLEKYGPLREAGDLKSVPLLHDENRNEWRRWLEAAGASEVDASGGTVFIDSNGALDAAKAGHGIALTRRSLVSRELVEGALIAPFGTDMASTLAYFLVYPRRMLDNPDLVTLIDWMLSQAGSTEAGSL
MGSDKIHHHHHHMATNTGHSNPKEALTFMNAPQLDIHQPRIAAFFDLDKTIIATSSALAYGREFMHSGLITPAEALQMSMAKATYMFSGYSSEQMDHTKNQLAHLITGWSEEQVREIANDTLQSVVAPAIYAEARDLIHMHQETGHDVVIISASARILVEAIAAELGVDQVVATELTVVDGKFTGEVPFYCKGAAKAQAILDLTDKRGYQLDRSFAYSDSITDLPMLEAVGNPRAVNPDRALKKVALDRDWEIHTFKNPVALFSKPTKRDLQISTGVAAGVAAVVGSVMWWKSLNGRSDRLRLSCTRDPGTQM
MGSDKIHHHHHHMAVKRAYYGNDGDRDYFERVFQSANINFLIGSGASLPAINVLGTIENDLQQLINDEKEDEYFNMAAGFLSAVWLPHEYILDRGNDVAFPPPVISNVDYTRKNYDAFISSLEKILTRRRTGLLPRRINVFTTNYDLFIEEAATRNNNILFNDGFNKRMNVWGDEEFDAGSFNYSVSATGNLYNYKVELPTVNLIKLHGSFSWKHYKGRIIYNIGEKKPLNFATPAEMKKWVLAHALILPRKEKFKETLLQNVYYDLLRTYSNELDKEATLLVVFGFSFADEHLEMLTKKALRNATLKLLIFAFNEASVGGFMENFRDYSNVEIIYRPGGNVDFPVMNNIITCYLGGAR
MGSDKIHHHHHHMCGHAKGGLTVLVSSRACPPQVQHRYLKTVLYLDCPQEVGDQSSPWWLLNIGYWLYGSACMLCKAAFGIELATEPQMEFSAHKGTTSISLVRDALQGAELRGLDVATVLSHAHIDPRLLDQRYARVPAGTFSRLWIALADLLDDEFFAADSHPLRRGSFKLMAQLALGCDTIGQALKRILAFLRTALDDIYGSVECEGEHAAIIIHDHGELRRVFCYGAWLVLVHGLLCWLCDRRIPIVKLSMRPPQPVDDSDYRMRFCEEIEWRADRTSAVFEKSFLAYKVCQTPVSLPAFLKGTPSNFLVKYRNDDSTSIMIRRRLKLLSPHTWPELDELARDLSMSSSTLQRRLYAEGFTYQRLKDNLRRDISISLLCRAGMTVDGVASEVGFIETSAFHRAFKKWTGITPGAYRRSLLSPRGD
MGSDKIHHHHHHMCMYSATFTLEAITPVFMRGANQSKAEIRAASIKGLMRWWFRALSGSYFGNDVEGLRRVEEYVFGSTKRESRVVVEVVKEHVEERFCPLPMVWKKKKGVTTRVSQRAIAPGSKFTLLLTSDDEEVLKLACYSLIGLVYFGGIGFRCSRGAGSLKISSLKSDVQLIDLPKNKNQLGQMVNDLTVEIAKILKKTFLCDHENKNCTSYSSFWCFYLFLWGEKAELEEVYYRSNNLENERLTLLDLFEKEFKNKNNHLSNYGYRDFVFGLPRGTKKDRRASPIKVGITELSEKYHVRVSVFKTKIFKPGMNVKWDNIFVFLENIGAERIYPER
MGSDKIHHHHHHMCPARLRTPRTASLPTHRRSAMTTANPLNTSFTSADAAELYQVPNWSGGWFRVSDKGLMEATPAPGLHASLRAIVDEIVDRGESLPVILRFPQVLAGRVKHLNEAFQAAINEYNYSGHYQGVFPIKVNQRRAVVETVAAAGYDYAHGLEAGSKAELALCLAQKMHPDALLCCNGFKDDGFIKLALWGRTLGKNVVITIEKFTELDRILKQAKALGVKPAVGVRFKLHARGSGQWEESGGDQAKFGLNAYELLRVVERLKEENMLDSLVMLHTHIGSQITDIRRVKVAVREAAQTYAGLIAAGADLKYLNVGGGLGVDYDGSKTTFYASMNYTVKEYAADIVYTVQEVCKAREVPEPVIVSESGRALTAHHAVLILPVVDVTGPTRNLEDQELTVPGEDSHQIVRDMYETLENISMRNYRESYNDAVGDKQTLHNLFDLGYVTLEDRARGEALFNAILRKIAKLIQGEKYVPDELEDLQKVLADKFICNFSLFQSLPDNWAIGALFPIVPLDRLNEQPTRQATLVDITCDSDGKVEKFIDLRDVKATLPLHEPGDRPYYLGAFLMGAYQDVLGSAHNLFGKVSEAHVTVRPGGRFNIDLFVRGQKARRMIESMGYEEPMLRDAIEDQADAAIGRGTLTQEQEHELLEDYGEELLGYTYLEYES
MGSDKIHHHHHHMDDTTFLSTKEKILEIKPLMESAFGNILGYQELENMLAICTLVPFSNNQILFHQGDRIKGIYIIIKGTVDLIARTLGKGITKIETCLASDFLGETSFLLNEPSATSAVAKDNVTCLFIPSAYFELMPAFSPEAKYKIMKAIGYQACGRLKQLHDKIIDFISHSDMQSLSFLGRVIQTFTQPKIHTLDESGVDKDQIYKKTLFNSFTQDETDELLEHAIPLTANKNCVLIHENETIPVCYIVIYGAVQSNVIQNSKIAKLSVIGPDSLFASTACFLSDTKFSITFITCESATLLKISEAELQYFQKNKPMIWYKLFNLICGSIISLARSLKKLDVRLNIEKYNQ
MGSDKIHHHHHHMDEIVKVLSQHDRILVVGHIMPDGDCVSSVLSLTLGLEKLGKEVKAAVDYKIPYVFEKFPYIDKIEENPNFDPELLVVVDASSPDRIGKFQDLLDKVPSVVIDHHSTNTNFGNWNWVDPSFAATAQMIFRINKALGVEYDSNLATLNYLGIATDTGFFRHSNADVRVFEDAYKLVKMGADAHFVAKEILENKRFEQFKLFAEVLERLQLLENGKIAYSYIDYDTYLRHNCTDEDSAGFVGELRSIRGVEVAVLFMEFPRGKIHVSMRSKDWFNVNEVAFELGGGGHPRAAGVTFEGKKIEEVIPRVINHLLKKFKEGVESESEKIPEGDVLGG
MGSDKIHHHHHHMDENEFDNQRENKAVARVIISFLKYEEYALKEIYNLRVKKWASISDRQKDMVPNYTKYLANLKAAIIENGKFFRSVAEYALQSISFEPGEIVQPNDLDMSKTCSLLTQVYREWSAEAISERNCLNSRLVPFLKTLSPPKADILIPGCGTGRLLVDLSRMGYNCEGNEFSYHMLLVSQYMLNAGLLQNQIIIYPFIHCFSHWKKIEDQLSPIKVPDIEAWSSNKGMGSMSICAGSFVDCYGRNQGTKISSHYTFSRRMQLSRAKAENSKDVVVTNFFIDTGSNILDYLDTIGHVLKPGGIWCNFGPLLYHFENDHGVETTYEVNPYSGFQDKINDYTPLMGLELSSDDIISIATNHLDFELIRRESGILCGYGRYAGPESCAMPGYMCHYWILKSNPTNES
MGSDKIHHHHHHMDFALEQYHSAKDLLIFELRKFNPIVLVSSTIVATYVLTNLRHMHLDEMGIRKRLSTWFFTTVKRVPFIRKMIDKQLNEVKDELEKSLRIVDRSTEYFTTIPSHSVGRTEVLRLAAIYDDLEGPAFLEGRVSGAVFNREDDKDEREMYEEVFGKFAWTNPLWPKLFPGVRIMEAEVVRMCCNMMNGDSETCGTMSTGGSISILLACLAHRNRLLKRGEKYTEMIVPSSVHAAFFKAAECFRIKVRKIPVDPVTFKVDLVKMKAAINKRTCMLVGSAPNFPFGTVDDIEAIGQLGLEYDIPVHVDACLGGFLLPFLEEDEIRYDFRVPGVSSISADSHKYGLAPKGSSVVLYRNKELLHNQYFCDADWQGGIYASATMEGSRAGHNIALCWAAMLYHAQEGYKANARKIVDTTRKIRNGLSNIKGIKLQGPSDVCIVSWTTNDGVELYRFHNFMKEKHWQLNGLQFPAGVHIMVTMNHTHPGLAEAFVADCRAAVEFVKSHKPSESDKTSEAAIYGLAQSIPDRSLVHEFAHSYIDAVYALTE
MGSDKIHHHHHHMDHQIEDFLEHWLPLADDAWVLAVITQIQGSAYRKPGAMMLFHEFGQGVGMLSGGCLEADLRRHAQKAMQTKQVTCVTYDASDESDASYRLGCGGIVDIMLIPLLKENHDLGLIELVQAFRHGRSGFYQLPLVKAGTDARQYQAAFYPEALTPFPASDFVRTGVFTQEAGESLIIPLRPRFHLGIFGGGIDAKPIAAMADTLGWQVTVFDGRTAYARAADFPHAHIVKLTAGELTANHIAQLDCAVVMNHNLGLDAVALKVIQAHPLAYVALLGPAHRRDKVLGMAGLSTESFSGVFSAPAGLALGGELPSAVALSILAQCHGVLHGATLKHLDEIMR

— the DeepSol protein solubility set
